From IntAct's records for PubMed 20739938

B1: Regulator of chromosome condensation (Homo sapiens), P18754 (parent)
chain: MSPKRIAKRRSPPADAIPKSKKVKVSHRSHSTEPGLVLTLGQGDVGQLGLGENVMERKKPALVSIPEDVVQAEAGGMHTVCLSKSGQVYSFGCNDEGALGRDTSVEGSEMVPGKVELQEKVVQVSAGDSHTAALTDDGRVFLWGSFRDNNGVIGLLEPMKKSMVPVQVQLDVPVVKVASGNDHLVMLTADGDLYTLGCGEQGQLGRVPELFANRGGRQGLERLLVPKCVMLKSRGSRGHVRFQDAFCGAYFTFAISHEGHVYGFGLSNYHQLGTPGTESCFIPQNLTSFKNSTKSWVGFSGGQHHTVCMDSEGKAYSLGRAEYGRLGLGEGAEEKSIPTLISRLPAVSSVACGASVGYAVTKDGRVFAWGMGTNYQLGTGQDEDAWSPVEMMGKQLENRVVLSVSSGGQHTVLLVKDKEQS

Variants of: B1
Details: with h2b11, P02281

Effect of a mutation on the interaction, disrupting interaction:
K232A;R234A;R237A
R237A
R234A
K232A
